# Substitutions are numbered along the chain they refer to. Numbers in names are those of the source.
# B1: cTPI (cytosolic triosephosphate isomerase) (Arabidopsis thaliana) (protein)
# chain: MARKFFVGGNWKCNGTAEEVKKIVNTLNEAQVPSQDVVEVVVSPPYVFLPLVKSTLRSDFFVAAQNCWVKKGGAFTGEVSAEMLVNLDIPWVILGHSERRAILNESSEFVGDKVAYALAQGLKVIACVGETLEEREAGSTMDVVAAQTKAIADRVTNWSNVVIAYEPVWAIGTGKVASPAQAQEVHDELRKWLAKNVSADVAATTRIIYGGSVNGGNCKELGGQADVDGFLVGGASLKPEFIDIIKAAEVKKSA
# notes: tag removal not mentioned
# B2: cTPI (cytosolic triosephosphate isomerase) (Arabidopsis thaliana; C127S) (protein)
# chain: B1 chain with C127S
# notes: tag removal not mentioned
# B3: cTPI (cytosolic triosephosphate isomerase) (Arabidopsis thaliana; C218S) (protein)
# chain: B1 chain with C218S
# notes: tag removal not mentioned
# B4: cTPI (cytosolic triosephosphate isomerase) (Arabidopsis thaliana; C127S/C218S) (protein)
# chain: B1 chain with C127S, C218S
# notes: tag removal not mentioned
# Substrate: O=CC(O)COP(=O)(O)O
# Assay: coupled assay with alpha-glycerophosphate dehydrogenase, NADH consumption
# Assay type: biochemical, Arabidopsis thaliana
# Settings: pH 7.8, 30°C, 100 mM Tris-Cl, 5 mM DTT, GAP 0-4 mM (from DL-GAP)
# Source text: coupled assay with alpha-glycerophosphate dehydrogenase, NADH consumption on cTPI (cytosolic triosephosphate isomerase)
Protein,Km,kcat,kcat/Km
B1,1320 ± 60 µM,3410 ± 269 s⁻¹,2.58e+06 ± 321000 M⁻¹ s⁻¹
B2,480 ± 40 µM,70.4 ± 7.4 s⁻¹,147000 ± 28000 M⁻¹ s⁻¹
B3,1680 ± 30 µM,2690 ± 73 s⁻¹,1.6e+06 ± 72000 M⁻¹ s⁻¹
B4,500 ± 60 µM,14.8 ± 0.8 s⁻¹,29600 ± 5200 M⁻¹ s⁻¹
